Source: patent US20140302070A1

Key:
[1] = target: MHC class I H2-K^d-… (HIV-1; mouse) (UniProt P01902)
[2] = target: MHC class I H2-K^d-… (HIV-1; mouse) (UniProt P01902); experiment: H2-K^d-… tetramer staining of splenocytes, flow cytometry

splenocytes (T cells) of mice immunized with human sΔ42PD1-p24fc DNA (cells without a defined receptor)
IFN-γ ELISPOT (fold against the p24fc-immunized group) [1]: 10

splenocytes (T cells) of mice vaccinated with msΔ42PD1-p24fc DNA (cells without a defined receptor)
frequency of p24-specific tetramer^+ CD8^+ T cells [2]: 17%
